Measured values as given in patent US20030059769, “High affinity nucleic acid ligands to lectins” (published 2003).

Columns and labels:
[1] = target: T1, Wheat germ agglutinin (WGA) (Triticum vulgare, UniProt P10968 P10968:27-197); test: filter; HBSS, room temperature; settings: tags: E Y Laboratories
T1 sequence: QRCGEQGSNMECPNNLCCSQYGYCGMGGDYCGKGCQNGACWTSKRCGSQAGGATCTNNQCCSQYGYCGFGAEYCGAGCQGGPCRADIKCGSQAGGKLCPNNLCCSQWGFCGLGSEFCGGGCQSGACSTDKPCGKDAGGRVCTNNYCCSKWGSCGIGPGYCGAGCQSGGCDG
Description: As described in SEIEX patent applications, a nitrocellulose filter partitioning method was used to determine the affinity of RNA ligands for WGA and for other proteins. Filter discs (nitrocellulose/cellulose acetate mixed matrix, 0.45 μm pore size, Millipore; or pure nitrocellulose, 0.45 μm pore size, Bio-Rad) were placed on a vacuum manifold and washed with 4 ml of HBSS buffer under vacuum. Reaction mixtures, containing ³²P labeled RNA pools and unlabeled WGA, were incubated in HBSS for 10 min at room temperature, filtered, and then imnmediately washed with 4 ml HBSS. The filters were air-dried and counted in a Beckman LS6500 liquid scintillation counter without fluor.
The dissociation constants for representative members of families 1-9 and orphan ligands were determined by nitrocellulose filter binding experiments and are listed in Table 3. These calculations assume one RNA ligand binding site per WGA monomer.

soluble L-selectin [2] = target: T2, soluble L-selectin (Homo sapiens, UniProt P14151 P14151:39-332); test: filter; 37 C; settings: tags: R&D Systems
T2 sequence: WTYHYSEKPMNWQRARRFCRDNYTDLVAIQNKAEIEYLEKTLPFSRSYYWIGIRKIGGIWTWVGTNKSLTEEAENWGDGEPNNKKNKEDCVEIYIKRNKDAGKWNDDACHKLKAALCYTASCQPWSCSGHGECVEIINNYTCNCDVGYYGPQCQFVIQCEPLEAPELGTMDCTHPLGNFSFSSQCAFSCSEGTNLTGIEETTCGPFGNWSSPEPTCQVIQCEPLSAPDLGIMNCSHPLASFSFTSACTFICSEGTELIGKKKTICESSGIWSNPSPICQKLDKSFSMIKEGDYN
Description: (§1) Unless otherwise indicated, all materials used in the 2′-F RNA SELEX against the L-selectin/IgG2 chimera, LS-Rg, were identical to those of Examples 7, paragraph A and 13, paragraph A. SHMCK-140 buffer, used for all SELEX and binding experiments, was 1 mM CaCl₂, 1 mM MgCC₂, 140 mM NaCl, 5 mM KCl. and 20 mM HEPES, pH 7.4. A soluble form of L-selectin, corresponding to the extracellular domains, was purchased from R&D Systems and used for some nitrocellulose filter binding experiments.
(§2) As described in SELEX Patent Applications, a nitrocellulose filter partitioning method was used to determine the affinity of RNA ligands for LS-Rg and for other proteins. Filter discs (nitrocellulose/cellulose acetate mixed matrix, 0.45 μm pore size, Millipore) were placed on a vacuum manifold and washed with 3 ml of SHMCK 140 buffer under vacuum. Reaction mixtures, containing ³²P labeled RNA pools and unlabeled LS-Rg, were incubated in SHMCK 140 for 10-20 min at 37° C., and then immediately washed with 3 ml SHMCK 140. The filters were air-dried and counted in a Beckman LS6500 liquid scintillation counter without fluor. Alternatively, binding studies employed 96 well micro-titer manifolds essentially as described in Example 13, paragraph E.
(§3) These calculations assume two ligand binding sites per chimera.

soluble L-selectin [3] = target: T2, soluble L-selectin; test: filter; 37 C, soluble L-selectin; settings: tags: R&D Systems; label: 32P
Description: as §1, §2

L-selectin (LS-Rg) [4] = target: T3, L-selectin (LS-Rg) (Homo sapiens, UniProt P14151 P14151:39-332); test: filter; 37 C; settings: tags: human IgG2 Fc fusion
T3 sequence: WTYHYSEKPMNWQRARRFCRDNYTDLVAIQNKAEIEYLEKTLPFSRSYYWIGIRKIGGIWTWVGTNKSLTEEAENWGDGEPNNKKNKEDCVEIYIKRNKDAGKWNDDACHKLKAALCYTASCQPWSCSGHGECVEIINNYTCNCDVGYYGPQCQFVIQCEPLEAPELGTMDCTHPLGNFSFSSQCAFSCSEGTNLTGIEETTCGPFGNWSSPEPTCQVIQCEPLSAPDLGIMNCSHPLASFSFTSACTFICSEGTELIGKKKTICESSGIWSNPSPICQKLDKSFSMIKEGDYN
Description: as §1, §2, §3

[5] = target: T4, L-selectin on PBMC / lymphocytes (Homo sapiens, UniProt P14151 P14151:39-372); test: flow; competition with FITC-LD201T1
T4 sequence: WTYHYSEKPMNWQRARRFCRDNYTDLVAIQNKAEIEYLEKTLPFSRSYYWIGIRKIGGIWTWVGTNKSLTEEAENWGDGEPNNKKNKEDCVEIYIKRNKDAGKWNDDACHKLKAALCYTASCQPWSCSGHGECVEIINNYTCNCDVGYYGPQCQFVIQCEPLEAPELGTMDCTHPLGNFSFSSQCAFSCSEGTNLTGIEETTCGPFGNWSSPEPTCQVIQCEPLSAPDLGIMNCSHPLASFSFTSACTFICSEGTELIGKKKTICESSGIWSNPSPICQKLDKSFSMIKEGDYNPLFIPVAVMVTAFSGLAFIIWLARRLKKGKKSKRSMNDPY
Description: Binding of evolved ligands to L-selectin presented in the context of a cell surface was tested by flow cytometry experiments with human lymphocytes. Briefly, peripheral blood mononuclear cells (PBMC) were purified on histoplaque by standard techniques. […] Fluorescent staining of cells was quantified on a FACSCaliber fluorescent activated cell sorter (Becton Dickinson, San Jose, Calif.). The affinity of the 2′-F competitor was calculated from the flurorescence inhibition curves.
The ability of full length 2′-F ligands to bind to L-selectin presented in the context of a cell surface was tested by competition-flow cytometry experiments with human peripheral blood lymphocytes.

P-selectin (PS-Rg) = P-selectin (PS-Rg) (Homo sapiens, UniProt P16109 P16109:42-321); test: filter; HSMC, 37 C; settings: tags: human IgG Fc fusion; chain copies: 2 (stated dimer)
P-selectin (PS-Rg), sequence (P16109 42-321, one chain of several): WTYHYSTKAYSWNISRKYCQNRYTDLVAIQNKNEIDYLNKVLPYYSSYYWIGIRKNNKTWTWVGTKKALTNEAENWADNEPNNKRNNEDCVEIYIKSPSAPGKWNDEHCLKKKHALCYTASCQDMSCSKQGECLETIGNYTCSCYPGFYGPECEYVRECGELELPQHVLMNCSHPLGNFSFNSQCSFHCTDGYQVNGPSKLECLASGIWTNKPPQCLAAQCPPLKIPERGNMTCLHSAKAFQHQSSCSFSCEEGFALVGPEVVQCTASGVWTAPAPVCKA

L-selectin (LS-Rg) [6] = target: T3, L-selectin (LS-Rg); test: inhibition; sialyl-LewisX competition ELISA; settings: tags: human IgG2 Fc fusion; chain copies: 2 (stated dimer)
Description: SLe^X-BSA (Oxford GlycoSystems, Oxford, UK) in 1X PBS, without CaCl₂, and MgCl₂, (GIBCO/BRL) was immobilized at 100 ng/well onto a microtiter plate by overnight incubation at […]. The wells were blocked for 1 h with the assay buffer consisting of 20 mM HEPES, 111 mM NaCl, 1 mM CaCl₂, 1 mM MgCl₂, 5 mM KCl, 8.9 mM NaOH, final pH 8, and 1% globulin-free BSA (Sigma). The reaction mixtures, incubated for 90 min with orbital shaking, contained 5 nM L-Selectin-Rg, a 1:100 dilution of anti-human IgG-peroxidase conjugate (Sigma), and 0 - 50 ruM of competitor in assay buffer. After incubation, the plate was washed with BSA-free assay buffer to remove unbound chimera-antibody complex and incubated for 25 min with O-phenylenediamine dihydrochloride peroxidase substrate (Sigma) by shaking in the dark at 22°0 C. Absorbance was read at 450 nm on a Bio-Kinetics Reader, Model EL312e (Bio-Tek Instruments, Laguna Hills, Calif.). Values shown represent the mean ±s.e from duplicate, or triplicate, samples from one representative experiment.
Sialyl Lewis^X is the minimal carbohydrate ligand bound by selecting.

[7] = chain copies: 2 (stated homodimer)
[8] = chain copies: homodimer, label: 32P

B1: WGA ligand 6.5 (ssRNA)
RNA: GGGAAAAGCGAAUCAUACACAAGAGUCCCUAGGGAUGCAACGGGCAGCAUUCGCAUAGGAGUAAUCGGAGGUCGCUCCGCCAGAGACCAACCGAGAA
modifications: 2'-NH2 C and U
[1]; [7]
  Kd: 678000 pM

B2: WGA ligand 6.9 (ssRNA)
RNA: GGGAAAAGCGAAUCAUACACAAGACUCGGCGGGAACGAAGUGUGUGAGUAACGAUCACUUGGUACUAAAAGCCCGCUCCGCCAGAGACCAACCGAGAA
modifications: 2'-NH2 on all C and U
[1]; [8]
  Kd: 396000 pM

B3: LF1712 (ssRNA)
RNA: GGGAGGACGAUGCGGGAUCUUAAGCAGUGCGUUAUUCGAACUAUCCCAGACGACUCGCCCGA
modifications: 2'-F C and U
Soluble L-selectin [2]
  Kd: 65 pM

B4: LF1817 (ssRNA)
RNA: GGGAGGACGAUGCGGUGCUUAAACAACGCGUGAAUCGAGUUCAUCCACUCCUCCUCAGACGACUCGCCCGA
modifications: 2'-F on all C and U
Soluble L-selectin [3]
  Kd: 2300 pM

B5: WGA ligand 6.23 (ssRNA)
RNA: GGGAAAAGCGAAUCAUACACAAGACUCGGCGGGAAUCGAAAGUGUACUGAAUUAGAACGGUGGGCCUGCUCAUCGUGCUCCGCCAGAGACCAACCGAGAA
modifications: 2'-NH2 C and U
[1]; [7]
  Kd: 824000 pM

B6: LF1708 (ssRNA)
RNA: GGGAGGACGAUGCGGAUCUUAAGCAGCGCGUCAAUCGAGCUAACCCAGACGACUCGCCCGAG
modifications: 2'-F on all C and U
L-selectin (LS-Rg) [4]; chain copies: dimer, label: 32P
  Kd: 70000 pM

B7: LF1613 (ssRNA)
RNA: GGGAGGACGAUGCGGUGCUAUUCUUAAGCGGCGUGUUUUUCAAGCCAAUAUCAUCAGACGACUCGCCCGA
modifications: 2'-F C and U
[5]
  Kd: 200 pM

B8: LF1614 (ssRNA)
RNA: GGGAGGACGAUGCGGCAAACAAGCUCAAAUGACGUGUUUUUCAAGUCCUUGUUGUCAGACGACUCGCCCGA
modifications: 2'-F C and U
L-selectin (LS-Rg) [4]; chain copies: 2 (stated dimer)
  Kd: 170 pM

B9: LF1521 (ssRNA)
RNA: GAGGACGAUGCGGGCUCUUAAGCAACGUGUUAUCAAGUUAGCCCAGACGACUCGCCCGA
modifications: 2'-F C and U
Soluble L-selectin [2]
  Kd: 250 pM

B10: LF1536 (ssRNA)
RNA: GGGAAGACGAUGCGGCGCUCAAAUAAUGCGUUAAUCGAAUUCGCCCAGACGACUCGCCCGA
modifications: 2'-F C and U
Soluble L-selectin [2]
  Kd: 220 pM

B11: PF404 (ssRNA)
RNA: GGGAGACAAGAAUAAACGCUCAAUCAGCAGUAAGCGAUCCUAUAAAGAUCAACUAGCCAAAGAUGACUUAUUCGACAGGAGGCUCACAACAGGC
modifications: 2'-F C and U
P-selectin (PS-Rg)
  Kd: 47.5 pM

B12: LF1513 (ssRNA)
RNA: GGGAGGACGAUGCGGGCUCUUCAGCAACGUGUUAUCAAGUUAGCCCAGACGACUCGCCCGA
modifications: 2'-F C and U
[5]
  Kd: 4000 pM

B13: LF1808 (ssRNA)
RNA: GGGAGGACGAUGCGGCAUGGUCUUAGGCGACGCGUUUAUAUCGAGUCACCAUGCUCAGACGACUCGCCCGA
modifications: 2'-F C and U
L-selectin (LS-Rg) [4]; chain copies: 2 (stated dimer)
  Kd: 600 pM

B14: WGA ligand 11.6 (ssRNA)
RNA: GGGAAAAGCGAAUCAUACACAAGACUGGGGAGCAGGAUAUGAGAUGUGCGGGGCAAUGGAGUCGUGACGAACCGCUCCGCCAGAGACCAACCGAGAA
modifications: 2'-NH2 on all C and U
[1]; [8]
  Kd: 702000 pM

B15: LF1815 (ssRNA)
RNA: GGGAGGACGAUGCGGCCAUCGGUCUUGGGCAACGCGUUUUCGAGUUACCUAUGGUCAGACGACUCGCCCGA
modifications: 2'-F C and U
Soluble L-selectin [2]
  Kd: 180 pM

B16: PF398 (ssRNA)
RNA: GGGAGACAAGAAUAAACGCUCAACGAACCACGGGGAAAUCCACCAGUAACACGCGAGGCAAACAGACCCUCUUCGACAGGAGGCUCACAACAGGC
modifications: 2'-F C and U
P-selectin (PS-Rg)
  Kd: 46 pM

B17: LF1618 (ssRNA)
RNA: GGGAGGACGAUGCGGUUAGCCUACACUCUAGGUUCAGUUUUCGAAUCUUCCACCGCAGACGACUCGCCCGA
modifications: 2'-F C and U [all C and U 2'-F; W in the 3' fixed region (cagacgacucgcccga) = A]
[5]
  Kd: 25000 pM

B18: LF1514 (ssRNA)
RNA: GGGAGGACGAUGCGGUACCUCAAAUUGCGUGUUUUCAAGCAGUAUCAGACGACUCGCCCGA
modifications: 2'-F C and U
[5]
  Kd: 800 pM

B19: LF1516 (ssRNA)
RNA: GGGAGGACGAUGCGGUCAUUCUCUAAAAAAGUAUUCCGUACCUCCACAGACGACUCGCCCGA
modifications: 2'-F on all C and U
Soluble L-selectin [3]
  Kd: 1300 pM

B20: LD196T1 (ssDNA)
DNA: AGCTGGCGGTACGGGCCGTGCACCCACTTACCTGGGAAGTGAGCTTA
L-selectin (LS-Rg) [6]
  IC50: ~3000 pM

B21: LD174T1 (ssDNA)
DNA: TAGCCATTCACCATGGCCCCTTCCTACGTATGTTCTGCGGGTGGCTTA
L-selectin (LS-Rg) [6]
  IC50: ~3000 pM

B22: LF1527 (ssRNA)
RNA: GGGAGGACGAUGCGGACCCUCAAAUAGCGUGCAUUUCAAGCUGGUCAGACGACUCGCCCGA
modifications: 2'-F C and U
L-selectin (LS-Rg) [4]; chain copies: 2 (stated dimer)
  Kd: 320 pM

B23: LF1529 (ssRNA)
RNA: GGGAGGACGAUGCGGACCCUCAAAUAACGUGUCUUUCAAGUUGGUCAGACGACUCGCCCGA
modifications: 2'-F C and U
L-selectin (LS-Rg) [4]; chain copies: 2 (stated dimer)
  Kd: 600 pM
